The DeepSol protein solubility set

Test: soluble on expression in E. coli; label from the status in PepcDB or PDB records

Sequence | soluble on expression in E. coli
MGSDKIHHHHHHMPRQLPPLYALRAFEAAARLSSFTRAGEELSITQSAISRHIRTLEEHFACRLFVRSGRSLQLTEAGRVLLPGVREGFAAFERACETLCGEDDILRMKAPSTLTMRWLLACLSRFRHLQPGNEVQLTSAWMDVDHVDFNQEPFDCAVLLSDGVFPPEWEVRKLFPELLIPVGAPDLLDEEPWDVCRLASVELLHPTVDKRDWREWLERMGLGDQVSLKGGQVFDTLELGMIAAARGYGISMGDLLMVAEDVAQKRLSLPWPTAVPSGMDYYLVWPRTRRGGERLRRLSAFLEGEVAAMDLPDVEILPRL | not soluble
MAHHHHHHMKRVANAKHATYDMPPKGLRVRDMLEKTAQQNCNQRKRGKCRKFFFLWKMDKMGDTHLGGQANGRKNLLRSESATDEASLGGNPLKEKLKESPANWGKDKQEEQQSTDRLPLPKVGNKMPEKKPDWFHVPAPTGKKYNELKADLKKLKLHTVCEEAQCPNIGECWNIGTATIMLLGDTCTRGCKFCSIKTSSKPLPPDANEPFNTAKAICEWDINYVVLTSVDRDDLPDGGASHFAKTIELIKFSRPEILIECLVSDFQGNVDSIRKLANSGMEVYAHNIETVRRLQKFVRDRRANYEQSLWVLKTAKEINPLLYTKTSIMLGLGETKQEVLQAMADVRQNNIDVITFGQYLRPTKNHLNVVEYVSPQMFDYYKEEGMKMGFKYIASGPLVRSSYKAGEYFMKNLVEQRRGVKLHAEG | not soluble
MLNIGYPFWPSMRFKPRPFITPVRFKCLFCLDCCRGRHVYLTVSDIKRLVGSGHDPQKFLTFSIEGGNIRFVLSVREWDLGCIFHDPGTGKCTIHPIRPLICRIYPFMVSKRPLGVEGEEPVQYKGRMLWLYYDESCPGINSQEGEVITPEEIAELGVKFEEELSRTTFEDVIKVLLEHHHHHH | soluble
MGSDKIHHHHHHMAILTITKQFGSGGGEIGSAVANLLGYEYIPLKRVFEEAGQAGNRIKKLADEVSKSVPGLWERTDWSFLAFVAFSQSTILNYALQNNIVVMTRGGNMLLKSIPHALRILVTAPFDVRVRRIMEREEISEEIAVMMAKKADREMAVTIQQIYGTNWMDPTEYDQVIDTSKQNWNEIARSLKDSLMAKEKDFTAEAQKILNMKALATYIKVKIMTSPAFITPTLEVEMKGDILVISGVVRNPDQHKRIEEEVKKLAGDRYVEFHIHYRGSWPFRGI | not soluble
KHSCIAVIDAGSTGSRLHIYSYDTDDTNTPIHIEEIWNKKIKPGFASIQPNSVTIDAYLTMLLADAPIHNIPVYFYATAGMRLLPQSQQKKYYDELEYWFRQQSQWQLVEAKTITGNDEALFDWLAVNYKLDTLKSVQNKSVGVMDMGGASVQIVFPMPKNAEISKHNQVELNIYGQNINLYVHSFLGLGQTEMSHQFLNSPSCFANDYPLPDGESGQGNAPSCKEEVTSLMNSVHKVNQQIQPLLALNPVNEWYSIGGISNLASSQLFHFENSELTNQSLLQQGDNQICHQQWDILNGQYPDDEYLYQYCLLSSYYYALMVDGYGINPNQTIHYIPPEQNLDWTIGVVLHRA | soluble
MGSDKIHHHHHHMEFSPQQDEALQAVARWLQAGKPQLFRLFGYAGTGKTTLARYFAEHVDGQVQFAAFTGKAAQVLRSKGAVNARTIHSLIYRPKGEESVEDEVTGKTSMSPTFSLNRQSPISRAKLVVIDECSMVDEQLGRDLMSFGTPILVLGDPGQLPPISGGGFFTDHEPDFLLTEIHRQARDNPILRLALDVREGREFMRGDYGTAQVIGKEDVTQELVLKADQVLVGTNRTRRRYNQRLRELKGFNADYPQAGDKLVCLRNDPAKGLLNGSLWKVMTSSRETVKPGINLLVSPEEDDPDRGVAKIKLLKAAFEDPDADIPWQQKKRFDDFDYGYALTVHKAQGSQWNEIVLFDESWAFKETRQRWLYTAITRAAERLTIVR | not soluble
MGSDKIHHHHHHMSTINNRNPKISVLMSIYKENSLYVRQAIDSILNQSFGDFEFLIYNDNPEDFILDKLVLEIARKDSRIQYQRNEKNIGLAATLNRQICVAKGEYLARMDADDISLPDRFIMQVEYLDRNTNIAVLGTWAKIIDKEGQVISSASLKTGYNNIIACAMCDSPLFHPSVMIRKEFLQLNGLSYNEDFSCAQDYELWSRILFEKGGYIDNLSVYLIYYRVTTSQISSIKQQQQIYNSLLVRRNNISFFLNKYSIDLPRKITKTDVCNLINRISEFKEESSTHKIYVNILFMYCMSLPRLEKIILLIKYVCVFYSEFSLKQMCLLVASSFFMRKFPLCSLNIMLH | not soluble
MGSDKIHHHHHHMSNTNDLLNRINAKYSTMSKGHKLLATYITDNYDKAVFLTAAKMGETVGISESTVVRFATSLGYKGYPDFQKALEELVRNKLNSVQRMEVTYGRISQSQILETVLQSDRDKIKTTLEKIDADAFDLAVDTILQSRKIYIVGIRSCAPLASFLAFYMNLMFEDVCLLTTNSSSELFEQMVRIGKDDVIIGISFPRYSMRTLKALEFANNRSAKVITITDSIHSPMNLYSSCNLIADSDMASIVDSLVAPLSVINALIVALCMKKQNIVAKTLTELEDIWNEYQVYENDEIDYIDDSIKVHYAKLGDSQDE | not soluble
MPMLSEEEGGAKIVLEGPKELLDRIVEALKEVYDPEIPVNVYDLGLIYEVRVEGPREKPRIKVKMSLTAIGCPVSVALPAYVEDAIREAVPEAEDVEVEVVFDPPWTPERVTPEGRELLKTIYGYDVVEQWKRAAQQQYGG | soluble
MALVDQESCLRGFYSVFLRHCDVEPAIATFDGVRSPPDVVRLYPKPRYDYTLASAFLGTAVSGYITSRRDNAPNKNTGHRYVYTTSILIAVVTSVDTQHRSPSRCFMAMGESYFLQDEKCVFWLEHHHHHH | not soluble
SLASELHQTQVDLDGLLEVLGRNLYSTPAVAIRELIQNAHDACVRSRLETGRDGDFSIRIQADSHRNQIVITDNGSGLTYEEVLKYLATIGSGYTRVLRDSSHNEDMVGYFGLGFLSAYVVAEKVEVWTTSYQTPEQTWYFSTAGGKKFAISATAPAQVGTTVKLHLREEFYHLAESDLLQGLIERYCCLLRVPIFLNNDDVQVNNLVAPWRLDAATSELQRKKRRLEFAAIFEGAFEPLCAIPIPENNPWSLKGLLWVQDRGGYATSDYRNISVFVRSMFITGECRELLPLWAGFAGGVVESVALSPTASREDIQKNERFYEIRDFLAETLIEGLRTIAANESSVWRRILSRHNQTLLGAALSDDRLFEVMQNDLKIPTTIGDVTLPAYLKQSGGVIYIRNEDKNSQEELLFRAQMKPLVSGYLYAASGFCQKYAHWNHLKAHILGSGDGETKLFTEETVDKAIHDKLAALLLRKNEALSCARFEPAHVPLLVIHDQDVALKKRIERDEADKRIGSAALSLARLHTQAISAEIERRLYVNLNSPLIAAMIDGTQEAAGHLAVAVRAYMESLTHQVDDSDSNFSDELKRFSDALLAITKGEEG | soluble
MKVPRLIVAGTESGAGKTTITISIILKLLANQMKVKPYKIGPDYIDPQFHRLASGVPSENLDLWMMNDDQIRYLLIEGSREFDISVIEGVMGLFDGAGSDFTGSTYDLARRTGTPIVLVIDGYGISATAAAIVSGIKAYAGELLRGVIVTRVSGESHYRLIRDAVEEKTGVPVLGYMIRNEKAVLESRHLGLVQAYEIDEIREIFGAIDSSTVIDMHQIIDIARSADKLETLYSPEIERLGTFKVSVAMDSAFDFYYEENLRMLKRMGASIRYFSPMGNEVPDADSDLIYLGGGYPEVFAGKLQSATDTIEAIRHAASIGTGVYAECGGYMFLCRSLESTDGHIYGGVGIIPASVYMDASLVIGYREISAKRDTSILRAGETARGHEFHKSRIRFDGPYDHPFVLKSRSSSFEDGFSSGSVTATYAHIHFLSNPRVAENLLIALEHHHHHH | not soluble
MSLSAQHAAHAQADTITALGAYLTTLAESHGQDEVAQAMCEIATQTLPRSCGELWQLSLDREGWYHGGGWQTGTVLPPQGYTLRATLPRGPTDELRLPLQAHGLTVGEVRAPYEGLESEQEQQLLQTLSTAAAISLSGHLLQRRVRHRNVRDPLTGLFNRRYLEDTLERELHRARRVNAGLVLIRLEVDTLDAFAAEHGSETADRLMQAMADAVHHAFRGSDVCCRAGDDGFGILLPDASLDNGAMRAEAVREELAELRIHQRGRPLGPVTVSAGVAAYPDHSSNRDLLLDAAESAVTRARDEGGDVLRIAELVSPPNPNQGHHHHHH | soluble
MSLNQIYQLTKPKFINVKYQEEAIDQENHILIRPNYMAVCHADQRYYQGKRDPKILNKKLPMAMIHESCGTVISDPTGTYEVGQKVVMIPNQSPMQSDEEFYENYMTGTHFLSSGFDGFMREFVSLPKDRVVAYDAIEDTVAAITEFVSVGMHAMNRLLTLAHSKRERIAVIGDGSLAFVVANIINYTLPEAEIVVIGRHWEKLELFSFAKECYITDNIPEDLAFDHAFECCGGDGTGPAINDLIRYIRPQGTILMMGVSEYKVNLNTRDALEKGLILVGSSRSGRIDFENAIQMMEVKKFANRLKNILYLEEPVREIKDIHRVFATDLNTAFKTVFKWEEGHHHHHH | soluble
MSLTDAKHGETIQGPMSYGHWIAGRETHSGGASFPSHNPTTGAEWGRFALGSQDTVGDAVAAATAAFEGAEWSSLSPTRRGRLMMRWGDAIAQHAEKLGALETSQNGKLLSEMVLQARIVPDWLYYYGGLADKIEGRVIPVERRSVLNYTRREALGVVGVIMPWNSPLFLTTMAVAPALAAGNTVVIKPSEVSSASIIEAVKLAEQIGFPRGVLNVVTGGRETAEALIDHCGVAKIAFTGGVEAGRAVGVRAARRMAQVTLELGGKSANIVFPDADLAQARAGLLAGIFAAAGQTCVAGSRAFVHRSIHDRLLAELAERAKNIRIGNPLDPATQMGPVATKAQLDKDESMVRRAIDEGAQVVHGGCRAAVDGFPGGYFYTPTILTGVSPGSYIAQNEVFGPVLSVIPFDDEDEVIALANGTGFGLAAGIWSLNIRQAHRVANQLQAGTVWVNMYRAMSFNSPFGGYKASGIGRQNGIEAIDSYLQTKSIWCELSQEEGHHHHHH | not soluble
MSLARCERLRGAALRDVLGRAQGVLFDCDGVLWNGERAVPGAPELLERLARAGKAALFVSNNSRRARPELALRFARLGFGGLRAEQLFSSALCAARLLRQRLPGPPDAPGAVFVLGGEGLRAELRAAGLRLAGDPSAGDGAAPRVRAVLVGYDEHFSFAKLREACAHLRDPECLLVATDRDPWHPLSDGSRTPGTGSLAAAVETASGRQALVVGKPSPYMFECITENFSIDPARTLMVGDRLETDILFGHRCGMTTVLTLTGVSRLEEAQAYLAAGQHDLVPHYYVESIADLTEGLEDEGHHHHHH | soluble
